Sequences and labels used below:
B1: DVL3 (parent)
chain: FPELGYSYGGGSASSQHSEGSRSS
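Note: lentivirally expressed fusions sorted by FACS into six bins by GFP to DsRed ratio, PSI derived from sequencing read proportions per bin multiplied by bin number.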

The variants in this data set derive from B1. Description: protein stability index of a GFP-peptide fusion (GPS, HEK-293T) (PSI 1-6); higher = more stable. The note with it: c terminus: a fixed tail appended.
In the case of FPELGYSYGDGSASSQHSEGSRSS [G10D], the protein stability index was 3.67.
For FPELGYSYGTGSASSQHSEGSRSS [G10T] the value was 2.78; for FPELGYSYGCGSASSQHSEGSRSS [G10C], 2.2; for FPELGYSYGAGSASSQHSEGSRSS [G10A], 3.06.
For the variant FPELGYSYGEGSASSQHSEGSRSS [G10E], the protein stability index was determined as 3.95.
For FPELGYSYGPGSASSQHSEGSRSS [G10P] the value was 3.3.
The result for FPELGYSYGKGSASSQHSEGSRSS [G10K] reads 3.61; that for FPELGYSYGFGSASSQHSEGSRSS [G10F], 2.22; that for FPELGYSYGMGSASSQHSEGSRSS [G10M], 2.15.
FPELGYSYGHGSASSQHSEGSRSS [G10H]: the protein stability index turned out to be 3.12.
For FPELGYSYGNGSASSQHSEGSRSS [G10N] the value was 3.55.
Regarding FPELGYSYGWGSASSQHSEGSRSS [G10W], the protein stability index came out at 1.89.
The result for FPELGYSYGRGSASSQHSEGSRSS [G10R] reads 2.74; that for FPELGYSYGIGSASSQHSEGSRSS [G10I], 2.81.
Regarding FPELGYSYGSGSASSQHSEGSRSS [G10S], the protein stability index was 3.45.
With FPELGYSYGQGSASSQHSEGSRSS [G10Q], the protein stability index turned out to be 2.84.
In the case of FPELGYSYGLGSASSQHSEGSRSS [G10L], the protein stability index was found to be 2.62.
The result for FPELGYSYGYGSASSQHSEGSRSS [G10Y] reads 2.45.
For FPELGYSYGVGSASSQHSEGSRSS [G10V] the value was 2.83.
The result for FPELGYSYGGGRASSQHSEGSRSS [S12R] reads 2.91; that for FPELGYSYGGGIASSQHSEGSRSS [S12I], 2.64.
FPELGYSYGGGMASSQHSEGSRSS [S12M]: the protein stability index came to 2.9.
For FPELGYSYGGGNASSQHSEGSRSS [S12N] the value was 3.17.
As for FPELGYSYGGGFASSQHSEGSRSS [S12F], the protein stability index was determined as 2.65.
For FPELGYSYGGGCASSQHSEGSRSS [S12C], the protein stability index is 3.03.
As for FPELGYSYGGGLASSQHSEGSRSS [S12L], the protein stability index worked out at 2.81.
Turning to FPELGYSYGGGGASSQHSEGSRSS [S12G], the protein stability index is 3.14.
For FPELGYSYGGGEASSQHSEGSRSS [S12E] the value was 3.56.
Regarding FPELGYSYGGGPASSQHSEGSRSS [S12P], the protein stability index was 2.92.
Consider FPELGYSYGGGQASSQHSEGSRSS [S12Q], for which the protein stability index turned out to be 3.12.
For FPELGYSYGGGKASSQHSEGSRSS [S12K] the value was 2.82; for FPELGYSYGGGYASSQHSEGSRSS [S12Y], 2.41.
For FPELGYSYGGGVASSQHSEGSRSS [S12V] the value was 3; for FPELGYSYGGGWASSQHSEGSRSS [S12W], 2.22; for FPELGYSYGGGAASSQHSEGSRSS [S12A], 2.58.
The result for FPELGYSYGGGTASSQHSEGSRSS [S12T] reads 3.29; that for FPELGYSYGGGDASSQHSEGSRSS [S12D], 3.2; that for FPELGYSYGGGHASSQHSEGSRSS [S12H], 2.9.
Consider FPELGYSQGGGSASSQHSEGSRSS [Y8Q], for which the protein stability index is 4.06.
The result for FPELGYSSGGGSASSQHSEGSRSS [Y8S] reads 4.09; that for FPELGYSPGGGSASSQHSEGSRSS [Y8P], 3.97.
For the variant FPELGYSWGGGSASSQHSEGSRSS [Y8W], the protein stability index was 2.82.
The result for FPELGYSRGGGSASSQHSEGSRSS [Y8R] reads 3.2.
For FPELGYSMGGGSASSQHSEGSRSS [Y8M] the value was 3.6; for FPELGYSNGGGSASSQHSEGSRSS [Y8N], 4.09; for FPELGYSTGGGSASSQHSEGSRSS [Y8T], 3.7.
Take FPELGYSVGGGSASSQHSEGSRSS [Y8V]: the protein stability index stood at 3.45.
For FPELGYSYGGGSESSQHSEGSRSS [A13E], the protein stability index turned out to be 3.47.
The result for FPELGYSYGGGSDSSQHSEGSRSS [A13D] reads 2.77; that for FPELGYSYGGGSKSSQHSEGSRSS [A13K], 2.63; that for FPELGYSYGGGSHSSQHSEGSRSS [A13H], 2.73.
As to FPELGYSYGGGSLSSQHSEGSRSS [A13L], the protein stability index turned out to be 3.18.
Take FPELGYSYGGGSCSSQHSEGSRSS [A13C]: the protein stability index came to 2.22.
The result for FPELGYSYGGGSFSSQHSEGSRSS [A13F] reads 2.31.
The result for FPELGYSYGGGSGSSQHSEGSRSS [A13G] reads 3.04.
Regarding FPELGYSYGGGSISSQHSEGSRSS [A13I], the protein stability index was 2.45.
With FPELGYSYNGGSASSQHSEGSRSS [G9N], the protein stability index was 3.77.
The result for FPELGYSYPGGSASSQHSEGSRSS [G9P] reads 3.37; that for FPELGYSYQGGSASSQHSEGSRSS [G9Q], 2.8.
In the case of FPELGYSYKGGSASSQHSEGSRSS [G9K], the protein stability index was found to be 3.18.
With FPELGYSYDGGSASSQHSEGSRSS [G9D], the protein stability index is 4.05.
For FPELGYSYFGGSASSQHSEGSRSS [G9F] the value was 2.43.
For FPELGYSYYGGSASSQHSEGSRSS [G9Y] the value was 2.11; for FPELGYSYCGGSASSQHSEGSRSS [G9C], 2.3.
In the case of FPELGYSYWGGSASSQHSEGSRSS [G9W], the protein stability index stood at 1.58.
The result for FPELGYSYHGGSASSQHSEGSRSS [G9H] reads 2.93; that for FPELGYSYRGGSASSQHSEGSRSS [G9R], 2.91.
The result for FPELGYSYSGGSASSQHSEGSRSS [G9S] reads 3.27; that for FPELGYSYVGGSASSQHSEGSRSS [G9V], 2.4; that for FPELGYSYAGGSASSQHSEGSRSS [G9A], 2.39.
The result for FPELGYSYEGGSASSQHSEGSRSS [G9E] reads 4.39; that for FPELGYSYMGGSASSQHSEGSRSS [G9M], 2.49; that for FPELGYSYTGGSASSQHSEGSRSS [G9T], 3.32.
Take FPELGYSYIGGSASSQHSEGSRSS [G9I]: the protein stability index came out at 2.22.
The result for FPELGYSYLGGSASSQHSEGSRSS [G9L] reads 1.6.
FPELGYSYGGQSASSQHSEGSRSS [G11Q]: the protein stability index is 3.16.
The result for FPELGYSYGGNSASSQHSEGSRSS [G11N] reads 2.98.
The result for FPELGYSYGGHSASSQHSEGSRSS [G11H] reads 3.29; that for FPELGYSYGGTSASSQHSEGSRSS [G11T], 2.52; that for FPELGYSYGGKSASSQHSEGSRSS [G11K], 2.7.
For FPELGYSYGGPSASSQHSEGSRSS [G11P] the value was 2.9.
On to FPELGYSYGGSSASSQHSEGSRSS [G11S], for which the protein stability index stood at 3.03.
Consider FPELGYSYGGFSASSQHSEGSRSS [G11F], for which the protein stability index came out at 2.28.
FPELGYSYGGASASSQHSEGSRSS [G11A]: the protein stability index was determined as 3.29.
As to FPELGYSYGGCSASSQHSEGSRSS [G11C], the protein stability index came to 2.7.
For FPELGYSYGGMSASSQHSEGSRSS [G11M] the value was 2.73.
As for FPELGYSYGGRSASSQHSEGSRSS [G11R], the protein stability index was found to be 3.5.
The result for FPELGYSYGGDSASSQHSEGSRSS [G11D] reads 3.35; that for FPELGYSYGGISASSQHSEGSRSS [G11I], 2.22.
For the variant FPELGYSYGGESASSQHSEGSRSS [G11E], the protein stability index turned out to be 3.22.
In the case of FPELGYSYGGLSASSQHSEGSRSS [G11L], the protein stability index is 2.57.
Regarding FPELGYSYGGWSASSQHSEGSRSS [G11W], the protein stability index turned out to be 2.11.
For FPELGYSYGGVSASSQHSEGSRSS [G11V] the value was 2.81; for FPELGYSYGGYSASSQHSEGSRSS [G11Y], 2.38.

The record behind these values is the supplement of paper PMC10567573.
